{"source": "patent EP4582447A1", "about": "(Quaerite Biopharm Research (Beijing) Co., Ltd., dated 2025)", "key": {"[1]": {"target": "T1, Human VEGFA165 (human, UniProt P15692-4 27-191)", "experiment": "cell-based or functional assay"}, "[2]": {"target": "T1, Human VEGFA165", "experiment": "SPR, VEGFA165 on CM5"}, "[3]": {"target": "3% milk powder (negative control)", "experiment": "phage ELISA, 3% milk powder coated (negative control), anti-M13(HRP)"}, "[4]": {"target": "T1, Human VEGFA165", "experiment": "phage ELISA, VEGFA coated 0.5 µg/mL, anti-M13(HRP)"}, "[5]": {"target": "T1, Human VEGFA165", "experiment": "SPR Biacore 8K, VEGFA165 amine-coupled on CM5, nanobody as analyte, 1:1 model"}, "[6]": {"target": "T1, Human VEGFA165", "experiment": "SPR Biacore 8K, VEGFA165 amine-coupled on CM5, nanobody as analyte, 1:1 model", "remark": "listed apart in the source"}, "[7]": {"target": "T1, Human VEGFA165", "experiment": "competition ELISA on coated VEGFA, competitor VEGFR2-ECD-Fc 1 nM"}, "[8]": {"target": "T2, human VEGFA121 (human, UniProt P15692-9 27-147)", "T2 sequence (looked up)": "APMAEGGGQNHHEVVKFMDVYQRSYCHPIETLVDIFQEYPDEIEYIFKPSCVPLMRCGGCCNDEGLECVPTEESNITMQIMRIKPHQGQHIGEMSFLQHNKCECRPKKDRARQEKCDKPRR", "experiment": "ELISA, human VEGFA121 coated 0.3 µg/mL, anti-His detection"}, "[9]": {"target": "T1, Human VEGFA165", "experiment": "ELISA, VEGFA coated 0.3 µg/mL, anti-His detection"}, "[10]": {"target": "T1, Human VEGFA165", "experiment": "competition ELISA on coated VEGFA, competitor VEGFR2-ECD-Fc 2 nM"}, "[11]": {"target": "T1, Human VEGFA165", "experiment": "SPR Biacore 8K, V1-SA1 amine-coupled on CM5, VEGFA165 as analyte, two state reaction model (ka1)"}, "[12]": {"target": "T1, Human VEGFA165", "experiment": "SPR Biacore 8K, V1-SA1 amine-coupled on CM5, VEGFA165 as analyte, two state reaction model"}, "[13]": {"target": "T1, Human VEGFA165", "experiment": "SPR Biacore 8K, V1-SA1 amine-coupled on CM5, VEGFA165 as analyte, two state reaction model (kd1)"}, "[14]": {"target": "T1, Human VEGFA165", "experiment": "phage ELISA, VEGFA coated 0.5 µg/mL, anti-M13(HRP)"}, "[15]": {"target": "T1, Human VEGFA165", "experiment": "ELISA, VEGFA coated 0.3 µg/mL, anti-His detection", "remark": "listed apart in the source"}}, "note": "Read-outs that look alike come from different tables or passages of the source.", "data": [{"binder": "V1 (VHH, also called candidate antibody V1; antibody V1) VHH: QLQLVESGGGSVQPGGSLRLSCEVSGRTFSSYTMGWFRQAPGKEREFVVAISKGGYKYDSVSLEARFTISKDNTKNTVYLQMNSLKPEDTAVYYCAATRAYGSSRLRLADTYEYWGQGTQVTVSS", "values": [{"measurement": "IC50 (pM), inhibition of VEGFA-stimulated HUVEC proliferation (CCK-8)", "setting": "[1]", "result": 2690, "unit": "pM"}, {"measurement": "Maximum inhibition rate (%) of HUVEC proliferation", "setting": "[1]", "result": 103, "unit": "%"}, {"measurement": "fold difference of KD from the positive control BI-VEGF ab", "setting": "[2]", "result": "< 3", "unit": "fold"}, {"measurement": "OD450", "setting": "[3]", "result": 0.0377, "unit": "OD450"}, {"measurement": "OD450", "setting": "[4]", "result": 2.31, "unit": "OD450"}, {"measurement": "Kd", "setting": "[5]", "result": 0.247, "unit": "nM"}, {"measurement": "koff", "setting": "[5]", "result": 0.000101, "unit": "s⁻¹"}, {"measurement": "kon", "setting": "[5]", "result": 409000, "unit": "M⁻¹ s⁻¹"}, {"measurement": "Kd", "setting": "[6]", "result": 0.247, "unit": "nM"}, {"measurement": "koff", "setting": "[6]", "result": 0.000101, "unit": "s⁻¹"}, {"measurement": "kon", "setting": "[6]", "result": 409000, "unit": "M⁻¹ s⁻¹"}, {"measurement": "IC50", "setting": "[7]", "result": 5.59, "unit": "nM"}, {"measurement": "Maximum inhibition rate (%)", "setting": "[7]", "result": 90.5, "unit": "%"}, {"measurement": "EC50", "setting": "[8]", "result": 1.27, "unit": "nM"}, {"measurement": "EC50", "setting": "[9]", "result": 0.53, "unit": "nM"}, {"measurement": "IC50", "setting": "[10]", "result": 26.4, "unit": "nM"}, {"measurement": "Maximum inhibition rate (%)", "setting": "[10]", "result": 95, "unit": "%"}]}, {"binder": "V1-SA1 (VHH, Humanized V1; also called humanized antibody V1-SA1; monovalent nanobody V1-SA1) VHH: EVQLVESGGGLVQPGGSLRLSCAVSGRTFSSYTMGWFRQAPGKEREFVVAISKGGYKYDSVSLEARFTISRDNAKNTVYLQMNSLRPEDTAVYYCAATRAYGSSRLRLADTYEYWGQGTLVTVSS", "values": [{"measurement": "kon", "setting": "[11]", "result": "1.06e+06", "unit": "M⁻¹ s⁻¹"}, {"measurement": "Kd", "setting": "[12]", "result": 4.38, "unit": "nM"}, {"measurement": "koff", "setting": "[13]", "result": 0.0598, "unit": "s⁻¹"}, {"measurement": "IC50", "setting": "[10]", "result": 22.5, "unit": "nM"}, {"measurement": "Maximum inhibition rate (%)", "setting": "[10]", "result": 94.6, "unit": "%"}]}, {"binder": "V13 (VHH, Purified with C-terminal GGGGS-6×His; also called candidate antibody V13) VHH: QLQLVESGGGSVQPGGSLRLSCEVSGRTFTSYTMGWFRQAPGKEREFVVAISKGGYKYDAVSLEARFTISKDNTKNTVYLQMNSLKPEDTAVYYCAGTRAYGSSRLRLADTYEYWGQGTQVTVSS", "values": [{"measurement": "IC50 (pM), inhibition of VEGFA-stimulated HUVEC proliferation (CCK-8)", "setting": "[1]", "result": 3940, "unit": "pM"}, {"measurement": "Maximum inhibition rate (%) of HUVEC proliferation", "setting": "[1]", "result": 94.7, "unit": "%"}, {"measurement": "fold difference of KD from the positive control BI-VEGF ab", "setting": "[2]", "result": "< 3", "unit": "fold"}, {"measurement": "OD450", "setting": "[3]", "result": 0.0144, "unit": "OD450"}, {"measurement": "OD450", "setting": "[4]", "result": 2.14, "unit": "OD450"}, {"measurement": "Kd", "setting": "[6]", "result": 0.224, "unit": "nM"}, {"measurement": "koff", "setting": "[6]", "result": "8.65e-05", "unit": "s⁻¹"}, {"measurement": "kon", "setting": "[6]", "result": 386000, "unit": "M⁻¹ s⁻¹"}]}, {"binder": "V15 (VHH, Purified with C-terminal GGGGS-6×His; also called candidate antibody V15) VHH: QLQLVESGGGSVQPGGSLRLSCEVSGRTFASYTMGWFRQAPGKEREFVVAISKGGYKYDSVSLEARFTISKDNTKNTVYLQMNSLKPEDTAVYYCAGTRAYGSSRLRLAETYEYWGQGTQVTVSS", "values": [{"measurement": "IC50 (pM), inhibition of VEGFA-stimulated HUVEC proliferation (CCK-8)", "setting": "[1]", "result": 7120, "unit": "pM"}, {"measurement": "Maximum inhibition rate (%) of HUVEC proliferation", "setting": "[1]", "result": 84.2, "unit": "%"}, {"measurement": "fold difference of KD from the positive control BI-VEGF ab", "setting": "[2]", "result": "< 3", "unit": "fold"}, {"measurement": "OD450", "setting": "[3]", "result": 0.0126, "unit": "OD450"}, {"measurement": "OD450", "setting": "[4]", "result": 1.87, "unit": "OD450"}, {"measurement": "Kd", "setting": "[6]", "result": 0.277, "unit": "nM"}, {"measurement": "koff", "setting": "[6]", "result": "9.61e-05", "unit": "s⁻¹"}, {"measurement": "kon", "setting": "[6]", "result": 347000, "unit": "M⁻¹ s⁻¹"}, {"measurement": "IC50", "setting": "[7]", "result": 3.89, "unit": "nM"}, {"measurement": "Maximum inhibition rate (%)", "setting": "[7]", "result": 94.6, "unit": "%"}, {"measurement": "EC50", "setting": "[9]", "result": 0.89, "unit": "nM"}, {"measurement": "IC50", "setting": "[10]", "result": 29.3, "unit": "nM"}, {"measurement": "Maximum inhibition rate (%)", "setting": "[10]", "result": 71.6, "unit": "%"}]}, {"binder": "V17 (VHH, Purified with C-terminal GGGGS-6×His) VHH: QLQLVESGGGSVQPGGSLRLSCEVSGRTFSSYTMGWFRQAPGKEREFVVAISKGGYKYDTVSLEARFTISKDNTKNTVYLQMNSLKPEDTAVYYCAATRAYGSSRLRLAKTYEYWGQGTQVTVSS", "values": [{"measurement": "OD450", "setting": "[3]", "result": 0.0403, "unit": "OD450"}, {"measurement": "OD450", "setting": "[4]", "result": 3.47, "unit": "OD450"}, {"measurement": "IC50", "setting": "[7]", "result": 16.3, "unit": "nM"}, {"measurement": "Maximum inhibition rate (%)", "setting": "[7]", "result": 80.4, "unit": "%"}]}, {"binder": "V14 (VHH, Purified with C-terminal GGGGS-6×His) VHH: QLQLVESGGGSVQPGGSLRLSCEVSGRTFTSYTMGWFRQAPGKEREFVVAISKGGYKYNTVSLEARFTISKDNTKNTVYLQMNSLKPEDTAVYYCAGTRAYGSSRLRLANTYEYWGQGTQVTVSS", "values": [{"measurement": "OD450", "setting": "[3]", "result": 0.0252, "unit": "OD450"}, {"measurement": "OD450", "setting": "[4]", "result": 2.03, "unit": "OD450"}, {"measurement": "IC50", "setting": "[7]", "result": 4.58, "unit": "nM"}, {"measurement": "Maximum inhibition rate (%)", "setting": "[7]", "result": 94.9, "unit": "%"}]}, {"binder": "V18 (VHH) VHH: QLQLVESGGGSVQPGGSLRLSCEVSGRTFSSYTMGWFRQAPGKEREFVVAISKGGYKYNSVSLEARFTISKDNTKNTVYLQMNSLKPEDTAVYYCAGTRAYGSSRLRLADTYEYWGQGTQVTVSS", "values": [{"measurement": "OD450", "setting": "[3]", "result": 0.0134, "unit": "OD450"}, {"measurement": "OD450", "setting": "[14]", "result": 2.94, "unit": "OD450"}]}, {"binder": "V19 (VHH) VHH: QLQLVESGGGSVQPGGSLRLSCEVSGRTFSSYTMGWFRQAPGKEREFVVAISKGGYKYNSVSLEARFTISKDNTKNTVYLQMNSLKPEDTAVYYCAATRAYGSSRLKLANTYEYWGQGTQVTVSS", "values": [{"measurement": "OD450", "setting": "[3]", "result": 0.0273, "unit": "OD450"}, {"measurement": "OD450", "setting": "[14]", "result": 2.47, "unit": "OD450"}]}, {"binder": "V21 (VHH, Purified with C-terminal GGGGS-6×His) VHH: QLQLVESGGGSVQPGGSLRLSCEVSGRTFTSYTMGWFRQAPGKEREFVVAISKGGYKYNTVSLEARFTISKDNTKNTVYLQMNSLKPEDTAVYYCAGTRAYGSSRLRLAETYEYWGQGTQVTVSS", "values": [{"measurement": "OD450", "setting": "[3]", "result": 0.0186, "unit": "OD450"}, {"measurement": "OD450", "setting": "[4]", "result": 2.15, "unit": "OD450"}, {"measurement": "IC50", "setting": "[7]", "result": 4.62, "unit": "nM"}, {"measurement": "Maximum inhibition rate (%)", "setting": "[7]", "result": 88.3, "unit": "%"}]}, {"binder": "V22 (VHH) VHH: QLQLVESGGGSVQPGGSLRLSCEVSGRTFSSYTMGWFRQAPGKEREFVVAISKGGYKYDSVSLEARFTISKDNTKNTVYLQMNSLKPEDTAVYYCAATRAYGSSRLKLADTYEYWGQGTQVTVSS", "values": [{"measurement": "OD450", "setting": "[3]", "result": 0.0353, "unit": "OD450"}, {"measurement": "OD450", "setting": "[14]", "result": 1.64, "unit": "OD450"}]}, {"binder": "V25 (VHH) VHH: QLQLVESGGGSVQPGGSLRLSCEVSGRTFTSYTMGWFRRAPGKEREFVVAISKGGYKYDSVSLEARFTISKDNTKNTVYLQMNSLKPEDTAVYYCAGTRAYGSSRLKLAKTYEYWGQGTQVTVSS", "values": [{"measurement": "OD450", "setting": "[3]", "result": 0.0354, "unit": "OD450"}, {"measurement": "OD450", "setting": "[14]", "result": 1.29, "unit": "OD450"}]}, {"binder": "linear tandem bivalent nanobody 2V15-9GS (VHH, no further tag added here) QLQLVESGGGSVQPGGSLRLSCEVSGRTFASYTMGWFRQAPGKEREFVVAISKGGYKYDSVSLEARFTISKDNTKNTVYLQMNSLKPEDTAVYYCAGTRAYGSSRLRLAETYEYWGQGTQVTVSSGGGGSGGGSQLQLVESGGGSVQPGGSLRLSCEVSGRTFASYTMGWFRQAPGKEREFVVAISKGGYKYDSVSLEARFTISKDNTKNTVYLQMNSLKPEDTAVYYCAGTRAYGSSRLRLAETYEYWGQGTQVTVSS", "values": [{"measurement": "EC50", "setting": "[15]", "result": 0.25, "unit": "nM"}]}]}
